Results taken from US20240042006A1 (KOREA UNIVERSITY RESEARCH AND BUSINESS FOUNDATION SEJONG …, published 2024).
Substitutions are numbered along the chain they refer to. In names and notes the source's numbering stands.

T1: PCNA1 (Sulfolobus solfataricus, UniProt P57766 1-249)
T1 construct: also called PCNA1 wild-type subunit
T1 sequence (looked up): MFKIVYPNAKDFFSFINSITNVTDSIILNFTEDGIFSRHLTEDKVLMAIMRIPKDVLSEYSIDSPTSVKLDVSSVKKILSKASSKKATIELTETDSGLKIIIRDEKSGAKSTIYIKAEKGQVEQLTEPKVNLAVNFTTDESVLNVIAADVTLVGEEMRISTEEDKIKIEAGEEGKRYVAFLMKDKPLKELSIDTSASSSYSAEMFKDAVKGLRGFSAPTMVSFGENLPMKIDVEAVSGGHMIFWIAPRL

T2: PCNA3dm (Sulfolobus solfataricus)
T2 construct: also called third scaffold fragment 310; PCNA3 Y73F/S170V mutant subunit
T2 chain: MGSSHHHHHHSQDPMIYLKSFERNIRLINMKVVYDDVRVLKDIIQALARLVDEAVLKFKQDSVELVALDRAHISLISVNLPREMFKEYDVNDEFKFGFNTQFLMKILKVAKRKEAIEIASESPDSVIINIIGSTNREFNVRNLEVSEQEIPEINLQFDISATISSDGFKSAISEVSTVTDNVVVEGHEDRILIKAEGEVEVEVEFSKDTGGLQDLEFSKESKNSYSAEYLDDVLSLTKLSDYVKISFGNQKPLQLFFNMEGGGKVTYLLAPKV

B1: PCNA2 (other, Sulfolobus solfataricus, UniProt Q97Z84 1-245, looked up)
chain: MKAKVIDAVSFSYILRTVGDFLSEANFIVTKEGIRVSGIDPSRVVFLDIFLPSSYFEGFEVSQEKEIIGFKLEDVNDILKRVLKDDTLILSSNESKLTLTFDGEFTRSFELPLIQVESTQPPSVNLEFPFKAQLLTITFADIIDELSDLGEVLNIHSKENKLYFEVIGDLSTAKVELSTDNGTLLEASGADVSSSYGMEYVANTTKMRRASDSMELYFGSQIPLKLRFKLPQEGYGDFYIAPRAD
notes: also called PCNA2 wild-type subunit
B2: PCNA2dm (other)
chain: MGSSHHHHHHSSGLVPRGSHMMKAKVIDAVSFSYILRTVGDFLSEANFIVTKEGIRVSGIDPSRVVFLDIFLPSSYFEGFEVSQEKEIIGFKLEDVNDILKRVLKDDTLILSSNESKLTLTFDGEFTRSFELPLIQVESTQPPSVNLEFPFKAQLLTITFADIIDELSDLGEVLNIHSKENKLYFEVIGDLVTVKVELSTDNGTLLEASGADVSSSYGMEYVANTTKMRRASDSMELYFGSQIPLKLRFKLPQEGYGDFYIAPRAD
notes: also called second scaffold fragment 210; PCNA2 S172V/A174V mutant subunit
B3: PCNA3 (other, Sulfolobus solfataricus, UniProt P57765 1-244, looked up)
chain: MKVVYDDVRVLKDIIQALARLVDEAVLKFKQDSVELVALDRAHISLISVNLPREMFKEYDVNDEFKFGFNTQYLMKILKVAKRKEAIEIASESPDSVIINIIGSTNREFNVRNLEVSEQEIPEINLQFDISATISSDGFKSAISEVSTVTDNVVVEGHEDRILIKAEGESEVEVEFSKDTGGLQDLEFSKESKNSYSAEYLDDVLSLTKLSDYVKISFGNQKPLQLFFNMEGGGKVTYLLAPKV
notes: also called PCNA3 wild-type subunit
B4: PCNA1dm (other)
chain: T1 sequence (looked up) with T112K, Y114K
notes: also called first scaffold fragment 110; PCNA1 T112K/Y114K mutant subunit

What was measured:
Experiment in all cases: BLI (BLItz, ForteBio); the partner on the sensor is not stated
[1] = molecular target: T1, PCNA1
[2] = molecular target: T2, PCNA3dm
[3] = molecular target: B1
[4] = molecular target: B2

B1
Kd [1]: 6.31 nM

B2
Kd [2]: 571 nM

B3
Kd [3]: 3170 nM

B4
Kd [4]: 2.65 nM
